Residue numbers refer to the chain shown, from its start.
T1: mouse IL-17A (mouse, UniProt Q62386 26-158, limits assumed)
T1 construct: In SPR it was injected in solution, and no biotinylation is mentioned there; also called mIL-17A; mIL17A
T1 sequence (looked up): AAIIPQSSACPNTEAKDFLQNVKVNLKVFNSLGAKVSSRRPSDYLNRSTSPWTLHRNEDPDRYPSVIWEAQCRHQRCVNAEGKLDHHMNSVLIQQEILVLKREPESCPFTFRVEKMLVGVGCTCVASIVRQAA

B1: TP1KR9P61-G4 (designed binder)
chain: MLPAPKNLVVSRVTEDSARLSWTAPDAAFDSFAIEYFEDWWSGEAIVLTVPGSERSYDLTGLKPGTEYAVSIRGVKGGYPSAPLSAIFTT
notes: also called TCL14-His fusion protein
B2: TP1KR9P62-E3 (designed binder)
chain: B1 chain with A33G, W40Y, S42T
notes: as for B1
B3: TP1KR9P62-D4 (designed binder)
chain: B1 chain with A33G, E35I, S42A, A69G, Y79P, A82R
notes: as for B1
B4: TP1KR9P62-A2 (designed binder)
chain: B1 chain with P5L, R19H, F37S, W40Y, S42L, A69G, A82P
notes: as for B1
B5: TP1KR9P62-H10 (designed binder)
chain: B1 chain with A69S, Y79H, A82V
notes: as for B1
B6: TP1KR9P62-C3 (designed binder)
chain: B1 chain with A69S, S71T, Y79P, A82S
notes: as for B1
B7: TP1KR9P62-D8 (designed binder)
chain: B1 chain with A69G, Y79L, P80A, A82P
notes: as for B1
B8: TP1KR9P61-E2 (designed binder)
chain: B1 chain with Y79M, A82P
notes: as for B1
B9: TP1KR9P61-A7 (designed binder)
chain: B1 chain with A69S, A82S
notes: as for B1
B10: TP1KR9P61-A2 (designed binder)
chain: B1 chain with Y79M
notes: as for B1
B11: TP1KR9P62-C6 (designed binder)
chain: B1 chain with Y57C, A69S, S71T, A82S
notes: as for B1
B12: TP1KR9P62-D3 (designed binder)
chain: MLPAPKNLVVSRVTEDSARLSWTAPDAAFDSFAIEYFEDWWSGEAIVLTVPGSERSYDLTLKPGTEYSVSIRGVKGGYPSSPLSAIFTT
notes: as for B1

The binders below were run against T1, mouse IL-17A (assay: SPR (ProteOn XPR-36), clone amine-coupled on chip, mIL-17A in solution, 1:1 Langmuir fit).
Experimental: The affinities of select molecules binding to mIL-17A were measured using surface Plasmon resonance using a ProteOn XPR-36 instrument (Bio-Rad). Purified molecules were directly immobilized on the chip via amine coupling with varying densities (100˜300 Rus) at pH 5.0 and a flow rate of 30 μL/min for 5 minutes mIL-17A at 100 nM diluted in a 3-fold concentration series was tested for their binding to different molecules on the chip surface. The dissociation phases for all concentrations of all samples was monitored for 1˜2 hours at a flow rate of 100 μL/min depending on their off-rate. A buffer sample was injected to monitor the baseline stability and the surface was not regenerated for further use. The response data for all concentration series for each of the different surfaces of the scaffold molecules selected from the TLC14 library were globally fit to a 1:1 simple langmuir binding model to extract estimates of the kinetic (kₒₙ, koff) and affinity (KD) constants. As summarized in Table 9, affinities of the scaffold molecules specifically binding mIL-17A were at a subnanomolar range. Sequences of select mIL-17A binders are shown in SEQ ID NOS: 85-96, and the sequences of the C and F beta-strands and the CD and the FG loops in Table 10.

Row | Binder | Kd | koff | kon
1 | B1 | 0.309 nM | 5.02e-05 s⁻¹ | 162000 M⁻¹ s⁻¹
2 | B2 | 0.464 nM | 5.26e-05 s⁻¹ | 113000 M⁻¹ s⁻¹
3 | B3 | ≤ 0.0952 nM | ≤ 1e-05 s⁻¹ | 105000 M⁻¹ s⁻¹
4 | B4 | 0.0531 nM | 2.17e-05 s⁻¹ | 408000 M⁻¹ s⁻¹
5 | B5 | 0.0482 nM | 2.11e-05 s⁻¹ | 438000 M⁻¹ s⁻¹
6 | B6 | 0.0374 nM | 1.05e-05 s⁻¹ | 281000 M⁻¹ s⁻¹
7 | B7 | 0.0389 nM | 1.48e-05 s⁻¹ | 381000 M⁻¹ s⁻¹
8 | B8 | 0.27 nM | 3.96e-05 s⁻¹ | 147000 M⁻¹ s⁻¹
9 | B9 | 0.421 nM | 3.46e-05 s⁻¹ | 82000 M⁻¹ s⁻¹
10 | B10 | 0.287 nM | 3.93e-05 s⁻¹ | 137000 M⁻¹ s⁻¹
11 | B11 | 0.0212 nM | 1.2e-05 s⁻¹ | 568000 M⁻¹ s⁻¹
12 | B12 | 0.554 nM | 6.07e-05 s⁻¹ | 110000 M⁻¹ s⁻¹

Each binder was assayed against T1, mouse IL-17A (assay: competition ELISA: purified His-tagged clone against biotinylated mIL-17A binding to coated mIL-17A receptor Fc).
Experimental: An inhibition assay was performed to determine if the round 5 and 9 panning outputs against mouse IL-17A (mIL-17A) inhibited binding of mIL-17A to the mIL-17A receptor. Maxisorp plates were coated with 0.2 μg/ml mIL-17A receptor Fc fusion (R&D Systems, Minneapolis, Minn.) overnight, washed with Phosphate-Buffered Saline (PBS), pH 7.4 with 0.05% Tween-20 […] and blocked with 2% BSA, 5% Sucrose in PBS. 10 ng/ml biotinylated-mIL17A (b-mIL-17A) was added into the clarified bacterial lysates diluted 1:50 in 1% BSA in PBS, and the mixtures were incubated for 20 minutes. The blocked plates were washed and the bacterial lysates/b-mIL-17A incubations were transferred onto the plates. The plates were incubated for an additional hour, washed with PB ST, and the biotinylated protein detected with streptavidin-HRP (Jackson Immunoresearch, West Grove, Pa.) and OPD colorimetric substrate (Sigma-Aldrich, St. Louis, Mo.). Absorbance at 490 nm was read using an M5 plate reader (Molecular Devices, Sunnyvale, Calif.) and the data converted to % inhibition. Percent inhibition for mIL-17A:mIL-17 receptor binding was defined as 100−(sample/negative control×100).
Select bacterial lysates containing the scaffold molecules inhibiting the mIL-17A:mIL-17 receptor interaction were further characterized in a dose response inhibition assay using the protocol described above, except that 100 μl of purified TCL14-His (Ni-NTA) fusion proteins were used in the assays between concentrations of 10 μM to 56 pM. IC50 values were calculated from the dose response curves using a sigmoidal dose response fit.

Row | Binder | IC50
13 | B1 | 0.00883 nM
14 | B2 | 0.0642 nM
15 | B3 | 0.242 nM
16 | B4 | 0.261 nM
17 | B5 | 0.302 nM
18 | B6 | 0.117 nM
19 | B7 | 0.427 nM
20 | B8 | 0.0428 nM
21 | B9 | 0.0558 nM
22 | B10 | 0.0339 nM
23 | B11 | 0.109 nM
24 | B12 | 0.0912 nM

— patent US20160041182A1 (Janssen / Centocor, published 2016)
